Paper PMC10661118

Assays:
[1] = IRBP-SEAP reporter in HeLa, normalised to EV; settings: glycan lost; control: WT OTX2, untreated
[2] = DSP crosslink, soluble vs pellet fractions, WB, HeLa; settings: control: DMSO vehicle

Substance	other: transcriptional activity [1]	other: solubility (aggregation) ([2]; glycan lost)	other: solubility (aggregation) ([2]; glycan gained)
OTX2: OSMI4	no change	decreases	–
OTX2: Thiamet-G	–	–	increases
